{
  "source": "patent CN106866820A",
  "about": "(AB-MAT MEDICINE TECH (SHANGHAI) CO LTD, dated 2017)",
  "binders": {"B1": {"name": "anti-CK18(克隆号1P1)抗体 (antibody, V domains shown)", "VH": "EVQLQESGPSLVKPSQTLSLTCSVTGDSFTSGYWNWIRKFPGNKLEYMGYISYSGNCYYNPSLKSRISITRDTSKNQYYLQMNSVTTEDTATYFCARASAYYYGSFYDYAMDYWGQGTSVTVSS", "VL": "DIVMTQSQKFMSTSVGDRVSITCKASQNVDTAVAWYQQKPGQSPKLLIYSASNRFPGVPDRFTGSGSGTDFTLTISNMQSEDLADYFCQQYSSYPFTFGSGTKLEIK", "notes": "also called anti-CK18 (clone 1P1); 克隆号1P1 anti-CK18抗体"}},
  "key": {"[1]": {"target": "T1, 人角蛋白18(CK18), endogenous protein in PC9 cell lysate / membrane protein extract (human, UniProt P05783 2-430)", "T1 construct": "Endogenous protein in lysate or extract; also called 48KD条带", "T1 sequence (looked up)": "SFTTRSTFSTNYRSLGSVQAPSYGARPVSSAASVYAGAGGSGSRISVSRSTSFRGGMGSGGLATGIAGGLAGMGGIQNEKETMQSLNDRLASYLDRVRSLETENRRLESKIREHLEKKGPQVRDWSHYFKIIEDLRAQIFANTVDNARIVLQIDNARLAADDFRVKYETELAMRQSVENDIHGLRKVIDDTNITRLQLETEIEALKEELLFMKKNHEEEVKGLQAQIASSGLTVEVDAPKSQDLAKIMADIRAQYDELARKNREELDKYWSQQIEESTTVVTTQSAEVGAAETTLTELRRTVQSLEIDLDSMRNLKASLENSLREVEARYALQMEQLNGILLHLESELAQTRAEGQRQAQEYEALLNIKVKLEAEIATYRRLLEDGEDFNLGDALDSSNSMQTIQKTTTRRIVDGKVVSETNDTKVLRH", "assay": "Western blot on PC9 whole-cell lysate, antibody diluted 1:1000 and 1:2000"}, "[2]": {"target": "T2, 人角蛋白18(CK18), on PC9 human lung cancer cells (human, UniProt P05783 2-430)", "T2 construct": "whole, on cells; Endogenous CK18 on non-permeabilised PFA-fixed PC9 cells (IF) or live PC-9 cells (capture); also called human keratin 18; cytokeratin 18", "T2 sequence (looked up)": "T1 sequence (looked up)", "assay": "immunofluorescence on PFA-fixed non-permeabilised PC9 cells, antibody 1:1000, FITC goat anti-mouse secondary"}},
  "data": [
    {"binder": "B1", "values": [
      {"measurement": "binding result", "setting": "[1]", "value": "binds"},
      {"measurement": "binding result", "setting": "[2]", "value": "binds"}
    ]}
  ]
}
